The values that follow come from PMC12157784, “Photoelectrochemical Biosensor Based on 1D In2O3 Tube Decorated with 2D ZnIn2S4 Nanosheets for Sensitive PSA Detection”.

This data set addresses prostate specific antigen (PSA) (UniProt P07288 25-261). As to the kind of experiment: photoelectrochemical aptasensor (photocurrent decrease); PBS pH 7.4, aptamer immobilised on FTO/In2O3-ZnIn2S4, BSA blocked; linear 0.001-50 ng/mL, LOD 0.00037 ng/mL (not a Kd); PSA incubated 30 min at room temperature on aptamer electrode; 0.01 M PBS pH 7.4 as incubation/wash buffer; photocurrent read in 0.1 M ascorbic acid.

prostate specific antigen (PSA), sequence (P07288 25-261): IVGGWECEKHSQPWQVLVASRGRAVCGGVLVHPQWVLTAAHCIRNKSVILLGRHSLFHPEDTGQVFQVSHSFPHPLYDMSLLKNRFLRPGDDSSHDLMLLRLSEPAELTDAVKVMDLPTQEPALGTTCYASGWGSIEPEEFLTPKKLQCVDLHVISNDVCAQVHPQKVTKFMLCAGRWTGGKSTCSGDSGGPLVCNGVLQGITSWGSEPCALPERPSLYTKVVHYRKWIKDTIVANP

Take ATTAAAGCTCGCCATCAAATAGC (ssDNA, 5'-NH2-(CH2)6) [PSA aptamer]: the binding result is recorded as “binds”.
